Reference: patent US20050026285A1 (Harvard, published 2005)

Key:
[1] = biological target: c-Jun (recombinant: overexpressed in 293T cells or in vitro translated); experiment: cell-based or functional assay
c-Jun/c-Fos AP-1 complex = experiment: cell-based or functional assay
[2] = biological target: T1, endogenous KRC of Jurkat T cells (human, UniProt Q5T1R4 1-2406, limits assumed); experiment: anti-c-Jun IP from PMA/ionomycin-stimulated Jurkat cells, blot with anti-KRC antisera
T1 construct: Detected with anti-KRC rabbit antisera in anti-c-Jun immunoprecipitates
T1 sequence (Q5T1R4 whole entry): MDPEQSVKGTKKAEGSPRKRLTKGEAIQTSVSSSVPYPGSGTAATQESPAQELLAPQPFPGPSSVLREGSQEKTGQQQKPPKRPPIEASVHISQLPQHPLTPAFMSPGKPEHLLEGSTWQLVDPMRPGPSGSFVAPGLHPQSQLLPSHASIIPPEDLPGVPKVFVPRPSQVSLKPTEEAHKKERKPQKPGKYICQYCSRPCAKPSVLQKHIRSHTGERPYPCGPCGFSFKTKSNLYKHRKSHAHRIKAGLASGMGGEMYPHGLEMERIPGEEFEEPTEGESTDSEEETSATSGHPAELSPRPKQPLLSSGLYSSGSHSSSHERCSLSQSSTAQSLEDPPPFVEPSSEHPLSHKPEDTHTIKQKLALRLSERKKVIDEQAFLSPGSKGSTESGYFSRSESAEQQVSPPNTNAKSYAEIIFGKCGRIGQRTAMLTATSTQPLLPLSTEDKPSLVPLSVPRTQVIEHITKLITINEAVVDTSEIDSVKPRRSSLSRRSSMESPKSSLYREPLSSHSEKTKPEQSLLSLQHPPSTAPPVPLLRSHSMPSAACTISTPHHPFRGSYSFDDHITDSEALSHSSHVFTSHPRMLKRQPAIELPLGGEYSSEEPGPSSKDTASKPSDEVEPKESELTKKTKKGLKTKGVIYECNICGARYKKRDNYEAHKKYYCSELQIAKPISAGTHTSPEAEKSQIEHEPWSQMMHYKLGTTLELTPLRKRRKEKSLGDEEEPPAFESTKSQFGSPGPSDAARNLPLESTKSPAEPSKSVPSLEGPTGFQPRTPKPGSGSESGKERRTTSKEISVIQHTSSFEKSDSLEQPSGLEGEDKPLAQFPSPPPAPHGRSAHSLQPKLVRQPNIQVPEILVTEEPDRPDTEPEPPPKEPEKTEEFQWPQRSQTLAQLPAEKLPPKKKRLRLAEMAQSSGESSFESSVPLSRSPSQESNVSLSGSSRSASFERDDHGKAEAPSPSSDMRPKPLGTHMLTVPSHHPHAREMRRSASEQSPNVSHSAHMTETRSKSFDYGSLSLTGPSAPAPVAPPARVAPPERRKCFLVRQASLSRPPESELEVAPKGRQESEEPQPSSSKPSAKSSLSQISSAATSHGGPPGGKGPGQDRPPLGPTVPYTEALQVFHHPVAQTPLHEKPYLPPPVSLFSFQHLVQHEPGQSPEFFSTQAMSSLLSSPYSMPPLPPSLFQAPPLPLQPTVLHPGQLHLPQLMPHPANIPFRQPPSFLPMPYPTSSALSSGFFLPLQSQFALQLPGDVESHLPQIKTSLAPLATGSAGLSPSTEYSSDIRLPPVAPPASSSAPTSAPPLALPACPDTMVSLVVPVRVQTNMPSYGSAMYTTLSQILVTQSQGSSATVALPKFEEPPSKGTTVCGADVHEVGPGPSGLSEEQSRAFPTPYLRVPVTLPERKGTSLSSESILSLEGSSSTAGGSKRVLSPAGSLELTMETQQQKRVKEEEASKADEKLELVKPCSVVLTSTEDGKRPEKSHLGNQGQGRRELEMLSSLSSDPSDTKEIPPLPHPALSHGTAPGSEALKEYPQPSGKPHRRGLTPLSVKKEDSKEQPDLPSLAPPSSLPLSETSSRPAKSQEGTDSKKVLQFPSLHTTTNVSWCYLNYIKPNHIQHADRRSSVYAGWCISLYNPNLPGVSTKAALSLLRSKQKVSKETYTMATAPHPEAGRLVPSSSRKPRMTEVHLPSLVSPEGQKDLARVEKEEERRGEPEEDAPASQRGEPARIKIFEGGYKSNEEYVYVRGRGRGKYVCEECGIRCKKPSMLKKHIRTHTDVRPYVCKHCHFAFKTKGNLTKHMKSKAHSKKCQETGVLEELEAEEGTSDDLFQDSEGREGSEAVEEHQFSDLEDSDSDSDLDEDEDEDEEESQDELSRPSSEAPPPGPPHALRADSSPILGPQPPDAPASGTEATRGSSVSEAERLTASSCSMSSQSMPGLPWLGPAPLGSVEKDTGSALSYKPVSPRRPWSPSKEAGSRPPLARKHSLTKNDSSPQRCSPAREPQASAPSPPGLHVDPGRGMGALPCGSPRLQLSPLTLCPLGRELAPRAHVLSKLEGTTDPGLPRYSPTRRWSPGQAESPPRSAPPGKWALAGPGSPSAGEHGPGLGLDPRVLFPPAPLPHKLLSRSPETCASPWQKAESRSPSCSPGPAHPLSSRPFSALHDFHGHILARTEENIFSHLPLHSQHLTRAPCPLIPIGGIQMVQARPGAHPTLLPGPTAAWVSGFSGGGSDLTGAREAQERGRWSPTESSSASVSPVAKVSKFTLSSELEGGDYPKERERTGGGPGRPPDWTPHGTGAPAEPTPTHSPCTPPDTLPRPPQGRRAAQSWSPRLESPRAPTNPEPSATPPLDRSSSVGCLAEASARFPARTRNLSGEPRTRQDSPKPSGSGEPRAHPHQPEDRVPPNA
Experimental: (§1) FIG. 21(A) 293T cells were transfected with c-Jun and myc-KRCtr. 48 hours later, lysates were immunoprecipitated with anti-Myc antibody. Immunoprecipitates were probed by western blotting with anti-c-Jun antibody. FIG. 21(B) (left panel) 293T cells were cotransfected with c-Jun and full length His-KRC. 48 hours later, lysates were immunoprecipitated with anti-His antibody (DE8 Omniprobe) and precipitates were probed by western blotting with anti-c-Jun antibody. (right panel) In vitro translated and S35-labelled c-Jun and His-KRCtr were mixed and immunoprecipitated with anti-His antibody. Recovered c-Jun protein was visualized by autoradiography. FIG. 21(C) Jurkat or EL4 T cells were stimulated with PMA plus ionomycin for 45 minutes. Lysates were immunoprecipitated with anti-c-Jun antibody, and immunoprecipitates were probed with specific anti-KRC rabbit antisera. FIG. 21(D) (upper panel) 293T cells were transfected with AP-1 Luciferase along with c-Jun, c-Fos, and KRC. 24 hours later, Luciferase activity was determined as above. […] 24 hours later, luciferase activity was determined as above. […]

[3] = biological target: endogenous KRC of EL4 T cells (UniProt A2A884 1-2348, limits assumed); experiment: anti-c-Jun IP from PMA/ionomycin-stimulated EL4 cells, blot with anti-KRC antisera
Sequence of endogenous KRC of EL4 T cells (A2A884 whole entry): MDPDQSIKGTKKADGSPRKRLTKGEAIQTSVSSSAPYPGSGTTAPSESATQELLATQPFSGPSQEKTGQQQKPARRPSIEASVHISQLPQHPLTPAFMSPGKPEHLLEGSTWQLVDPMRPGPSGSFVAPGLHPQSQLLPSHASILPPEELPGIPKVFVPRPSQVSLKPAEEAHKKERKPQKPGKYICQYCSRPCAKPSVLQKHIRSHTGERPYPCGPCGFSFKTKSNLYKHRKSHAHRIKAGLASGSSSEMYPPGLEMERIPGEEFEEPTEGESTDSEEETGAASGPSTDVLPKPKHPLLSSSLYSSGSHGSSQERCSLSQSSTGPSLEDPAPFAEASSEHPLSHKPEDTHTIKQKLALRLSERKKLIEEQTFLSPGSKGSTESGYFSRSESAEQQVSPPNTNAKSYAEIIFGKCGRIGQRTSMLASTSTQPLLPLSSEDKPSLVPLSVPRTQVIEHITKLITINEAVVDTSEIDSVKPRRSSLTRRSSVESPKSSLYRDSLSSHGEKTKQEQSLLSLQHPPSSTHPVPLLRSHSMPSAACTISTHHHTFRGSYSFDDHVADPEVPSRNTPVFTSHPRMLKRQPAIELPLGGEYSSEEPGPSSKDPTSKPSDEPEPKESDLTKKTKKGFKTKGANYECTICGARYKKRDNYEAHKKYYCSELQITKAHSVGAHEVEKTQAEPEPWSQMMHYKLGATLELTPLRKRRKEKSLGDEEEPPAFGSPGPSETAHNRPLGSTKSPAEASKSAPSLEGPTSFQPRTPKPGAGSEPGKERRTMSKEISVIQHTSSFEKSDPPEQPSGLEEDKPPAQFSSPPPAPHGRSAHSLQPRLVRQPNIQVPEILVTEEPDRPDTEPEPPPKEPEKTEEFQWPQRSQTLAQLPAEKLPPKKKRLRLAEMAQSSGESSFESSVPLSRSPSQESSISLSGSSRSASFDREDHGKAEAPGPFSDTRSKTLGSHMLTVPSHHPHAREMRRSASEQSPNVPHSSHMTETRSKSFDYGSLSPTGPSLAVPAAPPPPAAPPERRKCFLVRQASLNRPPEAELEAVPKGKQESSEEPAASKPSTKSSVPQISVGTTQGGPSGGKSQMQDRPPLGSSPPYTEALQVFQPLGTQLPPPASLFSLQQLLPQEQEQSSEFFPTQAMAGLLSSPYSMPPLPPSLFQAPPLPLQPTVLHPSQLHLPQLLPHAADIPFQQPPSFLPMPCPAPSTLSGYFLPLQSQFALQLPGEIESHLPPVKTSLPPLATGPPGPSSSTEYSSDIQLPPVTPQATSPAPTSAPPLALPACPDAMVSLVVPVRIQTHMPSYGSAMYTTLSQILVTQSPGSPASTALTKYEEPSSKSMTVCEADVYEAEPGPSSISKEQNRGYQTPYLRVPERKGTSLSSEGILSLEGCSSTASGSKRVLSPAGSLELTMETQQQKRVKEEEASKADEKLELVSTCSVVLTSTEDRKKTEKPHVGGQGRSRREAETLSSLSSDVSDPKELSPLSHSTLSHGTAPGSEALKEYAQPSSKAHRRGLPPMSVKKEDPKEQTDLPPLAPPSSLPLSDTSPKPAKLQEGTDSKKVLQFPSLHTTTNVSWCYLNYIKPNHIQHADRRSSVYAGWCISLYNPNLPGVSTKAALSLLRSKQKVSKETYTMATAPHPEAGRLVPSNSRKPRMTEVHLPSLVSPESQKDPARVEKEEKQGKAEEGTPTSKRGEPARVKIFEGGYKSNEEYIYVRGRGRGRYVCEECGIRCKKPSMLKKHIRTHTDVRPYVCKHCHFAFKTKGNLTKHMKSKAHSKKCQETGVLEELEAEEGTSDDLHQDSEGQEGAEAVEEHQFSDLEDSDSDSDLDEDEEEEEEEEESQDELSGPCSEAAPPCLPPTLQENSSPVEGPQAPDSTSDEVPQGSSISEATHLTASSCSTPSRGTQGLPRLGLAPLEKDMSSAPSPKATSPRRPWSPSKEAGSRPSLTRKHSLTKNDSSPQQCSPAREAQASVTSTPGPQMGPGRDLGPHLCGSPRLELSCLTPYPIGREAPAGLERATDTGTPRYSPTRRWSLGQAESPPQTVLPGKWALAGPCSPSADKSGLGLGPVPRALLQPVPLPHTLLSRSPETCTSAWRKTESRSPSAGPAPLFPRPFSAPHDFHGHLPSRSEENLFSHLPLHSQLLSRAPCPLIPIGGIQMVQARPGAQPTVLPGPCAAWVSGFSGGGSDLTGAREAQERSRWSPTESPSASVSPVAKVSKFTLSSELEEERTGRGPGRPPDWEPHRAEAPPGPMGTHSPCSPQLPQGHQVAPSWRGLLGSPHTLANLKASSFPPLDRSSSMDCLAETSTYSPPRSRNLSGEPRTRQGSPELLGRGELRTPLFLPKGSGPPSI
Experimental: as §1

KRC (full-length, overexpressed; tag or construct not further specified), Q5T1R4 1-2406
AP-1 luciferase reporter activity in 293T cells overexpressing c-Jun [1]: 5 fold
AP-1 luciferase reporter activity in 293T cells overexpressing c-Jun plus c-Fos (c-Jun/c-Fos AP-1 complex): 5 fold

B1: endogenous c-Jun of Jurkat T cells (other, human, UniProt P05412 1-331, looked up)
chain: MTAKMETTFYDDALNASFLPSESGPYGYSNPKILKQSMTLNLADPVGSLKPHLRAKNSDLLTSPDVGLLKLASPELERLIIQSSNGHITTTPTPTQFLCPKNVTDEQEGFAEGFVRALAELHSQNTLPSVTSAAQPVNGAGMVAPAVASVAGGSGSGGFSASLHSEPPVYANLSNFNPGALSSGGGAPSYGAAGLAFPAQPQQQQQPPHHLPQQMPVQHPRLQALKEEPQTVPEMPGETPPLSPIDMESQERIKAERKRMRNRIAASKCRKRKLERIARLEEKVKTLKAQNSELASTANMLREQVAQLKQKVMNHVNSGCQLMLTQQLQTF
notes: also called AP-1 complexes
binding result [2]: binds

B2: endogenous c-Jun of EL4 T cells (other, UniProt P05627 1-334, looked up)
chain: MTAKMETTFYDDALNASFLQSESGAYGYSNPKILKQSMTLNLADPVGSLKPHLRAKNSDLLTSPDVGLLKLASPELERLIIQSSNGHITTTPTPTQFLCPKNVTDEQEGFAEGFVRALAELHSQNTLPSVTSAAQPVSGAGMVAPAVASVAGAGGGGGYSASLHSEPPVYANLSNFNPGALSSGGGAPSYGAAGLAFPSQPQQQQQPPQPPHHLPQQIPVQHPRLQALKEEPQTVPEMPGETPPLSPIDMESQERIKAERKRMRNRIAASKCRKRKLERIARLEEKVKTLKAQNSELASTANMLREQVAQLKQKVMNHVNSGCQLMLTQQLQTF
notes: also called AP-1 complexes
binding result [3]: binds
